Measurements: the supplement of paper PMC9112550, “Optimization of the antimicrobial peptide Bac7 by deep mutational scanning” (BMC Biology, 2022)

Tested on: Escherichia coli TOP10
Test: shrunken log2 fold change of peptide-encoding DNA abundance (4.5 h post-induction vs induction); higher = less antimicrobial activity (less host growth inhibition)
Details: time post-induction: 4.5 h; library: site-saturation at positions 5, 18, 19, 20
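Note: peptides expressed intracellularly from a pBAD plasmid library in pooled LB shake-flask culture, induced with 0.3% L-arabinose, DNA abundance read by NGS, three biological replicates, DESeq2 with apeglm shrinkage.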

In order of falling “shrunken log2 fold change” value:
1. RRIRRRPPRLPRPRPRPPPQPRP  1.27
2. RRIRKRPPRLPRPRPRPAPKPRP  1.06
3. RRIRGRPPRLPRPRPRPAQWPRP  0.933
4. RRIRCRPPRLPRPRPRPKPRPRP  0.749
5. RRIRFRPPRLPRPRPRPGRAPRP  0.712
6. RRIRLRPPRLPRPRPRPECWPRP  0.587
7. RRIRMRPPRLPRPRPRPGWLPRP  0.533
8. RRIRWRPPRLPRPRPRPLKTPRP  0.453
9. RRIRRRPPRLPRPRPRPLCEPRP  0.443
10. RRIRMRPPRLPRPRPRPMEWPRP  0.379
11. RRIRLRPPRLPRPRPRPRTPPRP  0.376
12. RRIRGRPPRLPRPRPRPEVYPRP  0.346
13. RRIRPRPPRLPRPRPRPLAEPRP  0.322
14. RRIRPRPPRLPRPRPRPRLSPRP  0.306
15. RRIRFRPPRLPRPRPRPPHQPRP  0.301
16. RRIRVRPPRLPRPRPRPTFWPRP  0.3
17. RRIRHRPPRLPRPRPRPAPTPRP  0.294
18. RRIRFRPPRLPRPRPRPRLCPRP  0.276
19. RRIRVRPPRLPRPRPRPPEFPRP  0.265
20. RRIRNRPPRLPRPRPRPGAVPRP  0.248
21. RRIRDRPPRLPRPRPRPAQSPRP  0.216
22. RRIRGRPPRLPRPRPRPHVWPRP  0.201
23. RRIRQRPPRLPRPRPRPPYVPRP  0.191
24. RRIRSRPPRLPRPRPRPGAIPRP  0.187
25. RRIRWRPPRLPRPRPRPNGWPRP  0.185
26. RRIRRRPPRLPRPRPRPAMGPRP  0.142
27. RRIRQRPPRLPRPRPRPNVWPRP  0.134
28. RRIRDRPPRLPRPRPRPNNDPRP  0.132
29. RRIRQRPPRLPRPRPRPKVDPRP  0.129
30. RRIRARPPRLPRPRPRPWPNPRP  0.111
31. RRIRVRPPRLPRPRPRPEACPRP  0.11
32. RRIRGRPPRLPRPRPRPQLCPRP  0.0863
33. RRIRDRPPRLPRPRPRPNGEPRP  0.0768
34. RRIRRRPPRLPRPRPRPWHMPRP  0.0729
35. RRIRDRPPRLPRPRPRPLTDPRP  0.0638
36. RRIRPRPPRLPRPRPRPWMQPRP  0.0452
37. RRIRYRPPRLPRPRPRPGTVPRP  0.0427
38. RRIRRRPPRLPRPRPRPQAMPRP  0.0414
39. RRIRIRPPRLPRPRPRPTGVPRP  0.039
40. RRIRIRPPRLPRPRPRPADQPRP  0.0357
41. RRIRPRPPRLPRPRPRPDNAPRP  0.0303
42. RRIRDRPPRLPRPRPRPLMNPRP  0.0268
43. RRIRMRPPRLPRPRPRPNVEPRP  0.0231
44. RRIRYRPPRLPRPRPRPPESPRP  0.0226
45. RRIRSRPPRLPRPRPRPFQIPRP  0.0213
46. RRIRIRPPRLPRPRPRPAANPRP  0.0204
47. RRIRRRPPRLPRPRPRPVGQPRP  0.0153
48. RRIRLRPPRLPRPRPRPQQEPRP  0.0119
49. RRIRDRPPRLPRPRPRPNGRPRP  0.00232
50. RRIRERPPRLPRPRPRPTQWPRP  0.00138
51. RRIRIRPPRLPRPRPRPYHSPRP  -0.00112
52. RRIRCRPPRLPRPRPRPIEHPRP  -0.00454
53. RRIRKRPPRLPRPRPRPQMFPRP  -0.00577
54. RRIRTRPPRLPRPRPRPSEMPRP  -0.00622
55. RRIRYRPPRLPRPRPRPIANPRP  -0.0103
56. RRIRMRPPRLPRPRPRPCDPPRP  -0.0166
57. RRIRYRPPRLPRPRPRPGKRPRP  -0.0167
58. RRIRHRPPRLPRPRPRPTMFPRP  -0.0195
59. RRIRTRPPRLPRPRPRPNALPRP  -0.0225
60. RRIRDRPPRLPRPRPRPDAHPRP  -0.036
61. RRIRKRPPRLPRPRPRPNYSPRP  -0.0472
62. RRIRGRPPRLPRPRPRPWMGPRP  -0.0634
63. RRIRVRPPRLPRPRPRPTVHPRP  -0.0675
64. RRIRERPPRLPRPRPRPQAPPRP  -0.0683
65. RRIRHRPPRLPRPRPRPQQCPRP  -0.0705
66. RRIRPRPPRLPRPRPRPWVHPRP  -0.0708
67. RRIRRRPPRLPRPRPRPDTAPRP  -0.0709
68. RRIRQRPPRLPRPRPRPVKFPRP  -0.0717
69. RRIRTRPPRLPRPRPRPMITPRP  -0.0731
70. RRIRMRPPRLPRPRPRPYWCPRP  -0.0737
71. RRIRERPPRLPRPRPRPQWIPRP  -0.0767
72. RRIRWRPPRLPRPRPRPVIPPRP  -0.0775
73. RRIRCRPPRLPRPRPRPHLGPRP  -0.0785
74. RRIRRRPPRLPRPRPRPGHSPRP  -0.0814
75. RRIRSRPPRLPRPRPRPGYKPRP  -0.084
76. RRIRNRPPRLPRPRPRPGMDPRP  -0.0895
77. RRIRQRPPRLPRPRPRPHACPRP  -0.0973
78. RRIRQRPPRLPRPRPRPVFRPRP  -0.0986
79. RRIRTRPPRLPRPRPRPWHGPRP  -0.111
80. RRIRMRPPRLPRPRPRPHMSPRP  -0.123
81. RRIRTRPPRLPRPRPRPQLWPRP  -0.13
82. RRIRTRPPRLPRPRPRPMPQPRP  -0.134
83. RRIRVRPPRLPRPRPRPLLFPRP  -0.141
84. RRIRKRPPRLPRPRPRPFMVPRP  -0.145
85. RRIRDRPPRLPRPRPRPYPAPRP  -0.15
86. RRIRCRPPRLPRPRPRPWLVPRP  -0.16
87. RRIRERPPRLPRPRPRPVARPRP  -0.168
88. RRIRKRPPRLPRPRPRPDYSPRP  -0.168
89. RRIRVRPPRLPRPRPRPADMPRP  -0.173
90. RRIRIRPPRLPRPRPRPPMFPRP  -0.181
91. RRIRTRPPRLPRPRPRPNGSPRP  -0.198
92. RRIRRRPPRLPRPRPRPCFMPRP  -0.207
93. RRIRHRPPRLPRPRPRPHNIPRP  -0.209
94. RRIRCRPPRLPRPRPRPHCEPRP  -0.226
95. RRIRMRPPRLPRPRPRPYGLPRP  -0.248
96. RRIRERPPRLPRPRPRPGHHPRP  -0.261
97. RRIRRRPPRLPRPRPRPEYSPRP  -0.265
98. RRIRERPPRLPRPRPRPEMMPRP  -0.269
99. RRIRCRPPRLPRPRPRPMTRPRP  -0.275
100. RRIRTRPPRLPRPRPRPHTWPRP  -0.281
101. RRIRCRPPRLPRPRPRPSLMPRP  -0.287
102. RRIRARPPRLPRPRPRPLFYPRP  -0.312
103. RRIRTRPPRLPRPRPRPNIDPRP  -0.32
104. RRIRSRPPRLPRPRPRPCNTPRP  -0.324
105. RRIRVRPPRLPRPRPRPGMLPRP  -0.333
106. RRIRHRPPRLPRPRPRPWTMPRP  -0.344
107. RRIRHRPPRLPRPRPRPPKYPRP  -0.349
108. RRIRYRPPRLPRPRPRPRAIPRP  -0.36
109. RRIRCRPPRLPRPRPRPAFHPRP  -0.389
110. RRIRLRPPRLPRPRPRPKCYPRP  -0.414
111. RRIRQRPPRLPRPRPRPSYIPRP  -0.417
112. RRIRSRPPRLPRPRPRPSYEPRP  -0.426
113. RRIRFRPPRLPRPRPRPNSHPRP  -0.432
114. RRIRERPPRLPRPRPRPLKTPRP  -0.457
115. RRIRVRPPRLPRPRPRPYFFPRP  -0.512
116. RRIRHRPPRLPRPRPRPTYHPRP  -0.514
117. RRIRCRPPRLPRPRPRPFTAPRP  -0.553
118. RRIRFRPPRLPRPRPRPSKRPRP  -0.565
119. RRIRIRPPRLPRPRPRPKDNPRP  -0.606
120. RRIRSRPPRLPRPRPRPINHPRP  -0.662
121. RRIRDRPPRLPRPRPRPYPFPRP  -0.671
122. RRIRIRPPRLPRPRPRPWIMPRP  -0.735
123. RRIRFRPPRLPRPRPRPHSNPRP  -0.84
124. RRIRPRPPRLPRPRPRPSNIPRP  -1.15
125. RRIRNRPPRLPRPRPRPYSAPRP  -1.37
